# In patent US20060210473A1:
# How the values were obtained:
# [1] = molecular target: human endoglin (human) (UniProt P17813); assay: cell-based or functional assay
# [2] = molecular target: human endoglin (human) (UniProt P17813); assay: indirect immunofluorescence, FACS on HUVEC, 10 µg/ml
# [3] = molecular target: human endoglin (human) (UniProt P17813); assay: FACS on HUVEC; one grade for both antibodies; ++++ is CFI >100
# [4] = molecular target: human endoglin (human) (UniProt P17813); assay: FACS on ECV-304; one grade for both antibodies; ++ is CFI 25-50
# [5] = molecular target: human endoglin (human) (UniProt P17813); assay: FACS on MDA-MB-231 and SKBR3 breast tumor lines; one grade for both antibodies; + is CFI 5-25
# [6] = molecular target: human endoglin (human) (UniProt P17813); assay: FACS on HT-1080 and SAOS-2 sarcoma lines; one grade for both antibodies; + is CFI 5-25
# [7] = molecular target: human endoglin (human) (UniProt P17813); assay: FACS on A375M and T8 melanoma lines; one grade for both antibodies; + is CFI 5-25
# [8] = molecular target: human endoglin (human) (UniProt P17813); assay: FACS on U937; one grade for both antibodies; + is CFI 5-25
# [9] = molecular target: human endoglin (human) (UniProt P17813); assay: FACS on L-endoglin fibroblast transfectant; one grade for both antibodies; +++ is CFI 50-100
# [10] = molecular target: human endoglin (human) (UniProt P17813); assay: FACS competition on HUVEC; unlabelled TEC-11 against biotinylated TEC-4 (competitor), ratio 1:1
# [11] = molecular target: human endoglin (human) (UniProt P17813); assay: FACS, 20 µg/ml TEC-11 on the sorted endoglin^lo fraction of postconfluent HUVEC; mean of 2 studies, SD 2.4
# [12] = molecular target: human endoglin (human) (UniProt P17813); assay: FACS, 20 µg/ml TEC-11 on the sorted endoglin^hi fraction of postconfluent HUVEC; mean of 2 studies, SD 3.8
# [13] = molecular target: human endoglin (human) (UniProt P17813); assay: FACS on HUVEC, concentration giving half-maximal fluorescence
# [14] = molecular target: human endoglin (human) (UniProt P17813); assay: FACS competition on HUVEC; unlabelled TEC-4 against biotinylated TEC-11 (competitor), ratio 1:1
# [15] = molecular target: human endoglin (human) (UniProt P17813); assay: FACS competition on HUVEC; unlabelled TEC-4 against biotinylated TEC-11 (competitor), ratio TEC-11:TEC-4 1:100
"complement fixation, relative to TEC-4 [1] [fold]",complement-mediated lysis of HUVEC (trypan blue) [1] [% lysis],specific mean fluorescence intensity (MFI) [2] [MFI],corrected fluorescence intensity (CFI) [3] [cfi],corrected fluorescence intensity (CFI) [4] [cfi],corrected fluorescence intensity (CFI) [5] [cfi],corrected fluorescence intensity (CFI) [6] [cfi],corrected fluorescence intensity (CFI) [7] [cfi],corrected fluorescence intensity (CFI) [8] [cfi],corrected fluorescence intensity (CFI) [9] [cfi],percent blocking [10] [%],MFI [11] [MFI],MFI [12] [MFI],EC50 [13] [µg/mL],percent blocking [14] [%],percent blocking [15] [%],Substance
100,50,200,> 100,25 to 50,5 to 25,5 to 25,5 to 25,5 to 25,50 to 100,51,61.6,270,0.4,–,–,TEC-11 (antibody)
–,48,200,> 100,25 to 50,5 to 25,5 to 25,5 to 25,5 to 25,50 to 100,–,–,–,4,1,20,TEC-4 (antibody)
